B1: AT10-004 mutant B (antibody, V domains shown)
VH: RASQSVSRYLA
VL: RASQSVSRYLA
B2: AT10-004 mutant C (antibody, V domains shown)
VH: RASQSVSRFLA
VL: RASQSVSRFLA

Target: recombinant influenza HA3-protein (from H3N2, Wyoming, March 2003, Sino Biological Inc.) (influenza H3N2, Wyoming, March 2003)
Test: SPR imaging (IBIS MX96), antibody captured on anti-human-IgG chip, HA3 injected at 1 µg/ml, global 1:1 fit

Binder	Kd [nM]	koff [s⁻¹]	kon [M⁻¹ s⁻¹]
B1	0.05	1e-06	19000
B2	0.06	1e-06	17000

From US20130331552A1
